Where “and” joins values, the source holds several entries; their conditions need not be identical. Equal entries are not always repeated. Bridges are numbered along the chain shown (N, C = ends). Where no end group is shown, it is not given here. [ ]: non-standard residue; d: D form. The star is where a group is joined. Palmitoyl = CCCCCCCCCCCCCCCC(=O)*; Chg = N[C@H](C(=O)O)C1CCCCC1; NMeA = CN[C@@H](C)C(=O)O
Biological target: T1, β-catenin (UniProt P35222 134-665, limits assumed, biotinylated in the SPR and plate assays)
T1 sequence (looked up): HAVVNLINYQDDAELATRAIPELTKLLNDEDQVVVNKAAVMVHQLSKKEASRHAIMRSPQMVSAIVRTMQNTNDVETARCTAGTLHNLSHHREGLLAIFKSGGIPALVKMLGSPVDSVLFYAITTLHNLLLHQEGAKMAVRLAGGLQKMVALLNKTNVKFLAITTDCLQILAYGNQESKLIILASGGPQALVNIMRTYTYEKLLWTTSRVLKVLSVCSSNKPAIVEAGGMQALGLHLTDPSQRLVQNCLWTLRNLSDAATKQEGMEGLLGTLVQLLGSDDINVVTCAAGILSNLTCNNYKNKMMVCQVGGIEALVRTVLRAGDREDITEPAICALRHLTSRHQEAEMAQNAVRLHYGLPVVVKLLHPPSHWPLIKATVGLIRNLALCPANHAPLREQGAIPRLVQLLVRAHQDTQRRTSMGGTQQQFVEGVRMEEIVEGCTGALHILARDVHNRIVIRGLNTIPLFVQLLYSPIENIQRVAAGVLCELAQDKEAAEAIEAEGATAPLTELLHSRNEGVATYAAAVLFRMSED
Test: cell-based or functional assay

Binder: H-MSRMWFLISFWG-OH [SEQ ID NO: 41]
- Wnt Reporter EC50: ≤ 7.5 µM

Binder: H-MSRMLFLISFWG-OH [SEQ ID NO: 52]
- Wnt Reporter EC50: > 15 µM and ≤ 22.5 µM

Binder: H-MSRMWFLNSFWG-OH [SEQ ID NO: 70]
- Wnt Reporter EC50: > 30 µM

Binder: H-MSRMWFPISFWG-OH [SEQ ID NO: 65]
- Wnt Reporter EC50: > 30 µM

Binder: H-MSRKWFLISFWG-OH [SEQ ID NO: 59]
- Wnt Reporter EC50: > 30 µM

Binder: H-MSRVWFLISFWG-OH [SEQ ID NO: 64]
- Wnt Reporter EC50: > 7.5 µM and ≤ 15 µM

Binder: H-MSRMWFLFSFWG-OH [SEQ ID NO: 63]
- Wnt Reporter EC50: ≤ 7.5 µM

B1: SEQ ID NO: 50 (peptide)
peptide: MSRMAFLISFWG
HELM: PEPTIDE1{M.S.R.M.[meA].F.L.I.S.F.W.G}$$$$V2.0
SMILES: CC[C@H](C)[C@H](NC(=O)[C@H](CC(C)C)NC(=O)[C@H](Cc1ccccc1)NC(=O)[C@H](C)N(C)C(=O)[C@H](CCSC)NC(=O)[C@H](CCCNC(=N)N)NC(=O)[C@H](CO)NC(=O)[C@@H](N)CCSC)C(=O)N[C@@H](CO)C(=O)N[C@@H](Cc1ccccc1)C(=O)N[C@@H](Cc1c[nH]c2ccccc12)C(=O)NCC(=O)O
- Wnt Reporter EC50: > 30 µM

Binder: H-MSRMWFLISLWG-OH [SEQ ID NO: 68]
- Wnt Reporter EC50: > 7.5 µM and ≤ 15 µM

Binder: H-MGRMWFLISFWG-OH [SEQ ID NO: 67]
- Wnt Reporter EC50: ≤ 7.5 µM

Binder: H-MSRTWFLISFWG-OH [SEQ ID NO: 48]
- Wnt Reporter EC50: > 7.5 µM and ≤ 15 µM

Binder: H-MSRMWLLISFWG-OH [SEQ ID NO: 60]
- Wnt Reporter EC50: > 7.5 µM and ≤ 15 µM

Binder: H-MSRMWFLTSFWG-OH [SEQ ID NO: 62]
- Wnt Reporter EC50: > 30 µM

Binder: H-MSRMWFLVSFWG-OH [SEQ ID NO: 56]
- Wnt Reporter EC50: > 7.5 µM and ≤ 15 µM

Binder: H-MNRMWFLISFWG-OH [SEQ ID NO: 61]
- Wnt Reporter EC50: > 7.5 µM and ≤ 15 µM

Binder: H-MSRMWFLISSWG-OH [SEQ ID NO: 54]
- Wnt Reporter EC50: > 15 µM and ≤ 22.5 µM

Binder: H-MSRIWFLISFWG-OH [SEQ ID NO: 55]
- Wnt Reporter EC50: ≤ 7.5 µM

B2: SEQ ID NO: 451 (peptide)
peptide: WAESILKEHVQRVWG
HELM: PEPTIDE1{[CCCCCCCCCCCC(=O)[*:2]].W.[meA].E.S.I.L.K.E.H.V.Q.R.V.W.G.[am]}$PEPTIDE1,PEPTIDE1,4:R3-8:R3$$$V2.0
SMILES: CCCCCCCCCCCC(=O)N[C@@H](Cc1c[nH]c2ccccc12)C(=O)N(C)[C@@H](C)C(=O)N[C@H]1CCC(=O)NCCCC[C@@H](C(=O)N[C@@H](CCC(=O)O)C(=O)N[C@@H](Cc2c[nH]cn2)C(=O)N[C@H](C(=O)N[C@@H](CCC(N)=O)C(=O)N[C@@H](CCCNC(=N)N)C(=O)N[C@H](C(=O)N[C@@H](Cc2c[nH]c3ccccc23)C(=O)NCC(N)=O)C(C)C)C(C)C)NC(=O)[C@H](CC(C)C)NC(=O)[C@H]([C@@H](C)CC)NC(=O)[C@H](CO)NC1=O
- Wnt Reporter EC50: ≤ 7.5 µM

B3: SEQ ID NO: 456 (peptide)
peptide: WXQKILNDHGQRVW
HELM: PEPTIDE1{[CCCCCCCCCCCC(=O)[*:2]].W.[Aib].Q.K.I.L.N.D.H.[O=C([C@@H](N[*:1])C1CCCCC1)[*:2]].Q.R.V.W.[am]}$PEPTIDE1,PEPTIDE1,5:R3-9:R3$$$V2.0
SMILES: CCCCCCCCCCCC(=O)N[C@@H](Cc1c[nH]c2ccccc12)C(=O)NC(C)(C)C(=O)N[C@@H](CCC(N)=O)C(=O)N[C@H]1CCCCNC(=O)C[C@@H](C(=O)N[C@@H](Cc2c[nH]cn2)C(=O)N[C@H](C(=O)N[C@@H](CCC(N)=O)C(=O)N[C@@H](CCCNC(=N)N)C(=O)N[C@H](C(=O)N[C@@H](Cc2c[nH]c3ccccc23)C(N)=O)C(C)C)C2CCCCC2)NC(=O)[C@H](CC(N)=O)NC(=O)[C@H](CC(C)C)NC(=O)[C@H]([C@@H](C)CC)NC1=O
- Wnt Reporter EC50: ≤ 7.5 µM

B4: SEQ ID NO: 412 (peptide)
peptide: AEEDPQTILDDHLSRVLK
HELM: PEPTIDE1{[ac].[bAla].E.E.D.P.Q.T.I.L.D.D.H.L.S.R.V.L.K.[am]}$$$$V2.0
SMILES: CC[C@H](C)[C@H](NC(=O)[C@@H](NC(=O)[C@H](CCC(N)=O)NC(=O)[C@@H]1CCCN1C(=O)[C@H](CC(=O)O)NC(=O)[C@H](CCC(=O)O)NC(=O)[C@H](CCC(=O)O)NC(=O)CCNC(C)=O)[C@@H](C)O)C(=O)N[C@@H](CC(C)C)C(=O)N[C@@H](CC(=O)O)C(=O)N[C@@H](CC(=O)O)C(=O)N[C@@H](Cc1c[nH]cn1)C(=O)N[C@@H](CC(C)C)C(=O)N[C@@H](CO)C(=O)N[C@@H](CCCNC(=N)N)C(=O)N[C@H](C(=O)N[C@@H](CC(C)C)C(=O)N[C@@H](CCCCN)C(N)=O)C(C)C
- Wnt Reporter EC50: > 30 µM

Binder: Palmitoyl-PQKILDEHVQRVMK-NH2 (bridge 3-7; also: K3* and E7* marked (linkage not given here)) [SEQ ID NO: 487]
- Wnt Reporter EC50: ≤ 7.5 µM

B5: SEQ ID NO: 454 (peptide)
peptide: WAQKILNDHGQAV
HELM: PEPTIDE1{[CCCCCCCCCCCCCCCC(=O)[*:2]].W.[meA].Q.K.I.L.N.D.H.[O=C([C@@H](N[*:1])C1CCCCC1)[*:2]].Q.A.V.[am]}$PEPTIDE1,PEPTIDE1,5:R3-9:R3$$$V2.0
SMILES: CCCCCCCCCCCCCCCC(=O)N[C@@H](Cc1c[nH]c2ccccc12)C(=O)N(C)[C@@H](C)C(=O)N[C@@H](CCC(N)=O)C(=O)N[C@H]1CCCCNC(=O)C[C@@H](C(=O)N[C@@H](Cc2c[nH]cn2)C(=O)N[C@H](C(=O)N[C@@H](CCC(N)=O)C(=O)N[C@@H](C)C(=O)N[C@H](C(N)=O)C(C)C)C2CCCCC2)NC(=O)[C@H](CC(N)=O)NC(=O)[C@H](CC(C)C)NC(=O)[C@H]([C@@H](C)CC)NC1=O
- Wnt Reporter EC50: ≤ 7.5 µM

B6: SEQ ID NO: 453 (peptide)
peptide: WAQKILNDHGQAV
HELM: PEPTIDE1{[CCCCCCCCCCCC(=O)[*:2]].W.[meA].Q.K.I.L.N.D.H.[O=C([C@@H](N[*:1])C1CCCCC1)[*:2]].Q.A.V.[am]}$PEPTIDE1,PEPTIDE1,5:R3-9:R3$$$V2.0
SMILES: CCCCCCCCCCCC(=O)N[C@@H](Cc1c[nH]c2ccccc12)C(=O)N(C)[C@@H](C)C(=O)N[C@@H](CCC(N)=O)C(=O)N[C@H]1CCCCNC(=O)C[C@@H](C(=O)N[C@@H](Cc2c[nH]cn2)C(=O)N[C@H](C(=O)N[C@@H](CCC(N)=O)C(=O)N[C@@H](C)C(=O)N[C@H](C(N)=O)C(C)C)C2CCCCC2)NC(=O)[C@H](CC(N)=O)NC(=O)[C@H](CC(C)C)NC(=O)[C@H]([C@@H](C)CC)NC1=O
- Wnt Reporter EC50: ≤ 7.5 µM

B7: SEQ ID NO: 486 (peptide)
peptide: PQKILDEHVQRVMK-NH2
modifications: bridge 3-7; not fully specified (N-terminus); printed as H23C11C(O)-PQK*ILDE*HVQRVMK-NH2; also: K3* and E7* marked (linkage not given here)
- Wnt Reporter EC50: > 30 µM

B8: SEQ ID NO: 477 (peptide)
peptide: W[NMeA]QKILDEH[Chg]EAVWK
modifications: lactam 11-15, 4-8 (inferred); not fully specified (N-terminus); printed as H23C11C(O)-NH-W-NMeA-QK*ILDE*H-Chg-E*AVWK*
- Wnt Reporter EC50: ≤ 7.5 µM

Binder: Ac-PQKILDEH[Chg]QRVMK-NH2 (lactam 3-7) [SEQ ID NO: 488]
- Wnt Reporter EC50: ≤ 7.5 µM

Binder: Ac-W[NMeA]QKILDEH[Chg]EAVWK (lactam 11-15, 4-8 (inferred)) [SEQ ID NO: 476]
- Wnt Reporter EC50: > 7.5 µM and ≤ 15 µM

Binder: Ac-PQKILDEHVQRVMK-NH2 (bridge 3-7; also: K3* and E7* marked (linkage not given here)) [SEQ ID NO: 485]
- Wnt Reporter EC50: > 30 µM

B9: SEQ ID NO: 489 (peptide)
peptide: PQKILDEH[Chg]QRVMK-NH2
modifications: lactam 3-7; not fully specified (N-terminus); printed as H23C11C(O)-PQK*ILDE*H-Chg-QRVMK-NH2
- Wnt Reporter EC50: > 15 µM and ≤ 22.5 µM
